From PMC8916728 (2022) come the findings set out here.

As usually defined, the Kd is the constant that tells how readily two partners part at equilibrium. A word on the koff: it is the rate constant with which the complex falls apart.

B1: Fab 1-103 (Fab, V domains shown)
VH: QLQLQESGPGLVKPSETLSLTCSVSGDAISGSNYYWGWIRQPPGKGLQWIGSIYHTGSTFYNPSFSSRVTLSVDTSKNQFSLKLISVNAADTAVYYCARRIRGYSGTYDWGQGTLVTVSS
VL: DIQLTQSPSFLSASVGDRVTITCRASQDISSYVAWYQQKPGNAPKLLISSASTLPSGVPSRFSGSRSGTDFTLTISSLQPEDFATYYCQQLNNFGPGTTVDIK
B2: Fab 2-25 (Fab, V domains shown)
VH: QVQLVESGAEVKKPGASVKVSCKASGYTFTNYAIHWVRQAPGQRLEWMGWINAGRGNTKYSQKFQGRVTITRDTSASTAYMELSSLRSEDAAVYFCARDESTGDYYYYMDVWGKGTTVTVSS
VL: SYELTQPPSVSVSPGQTASITCSGDRLDDKYASWYQQKAGQSPVLVIYQDNKRPSGIPERFSGSNSGNTATLTISGTQAMDEADYYCQAWDSDTYVFGTGTKVTVL
B3: Fab 1-32 (Fab, V domains shown)
VH: QVKLVESGGGVVQPGRSLRLSCAGSGFAFDNYAMHWVRQAPGKGLEWVAVISLEGRNKYYAGPAKGRFSISRDNSRNTVHLQMNSLRPEDTAVYFCARDMRYYYDSNGHYRNRYGMDVWGQGTTVIVSS
VL: DIQMTQSPSSLSASVGDSVTITCQASQDINQFVSWYQQKPGKPPKLLIYDASNLESGVPSRFSGSGSGTHFTFTISSLQPDDIATYYCQQYENLFTFGPGTKVDIK
B4: Fab 2-18 (Fab, V domains shown)
VH: EVQLVQSGGGLVQPGGSLRVSCAASGFSFSDHDMDWVRQAPGKGFEWVGRSRNKDYSSTTEYAASVRGRFTISRHTSEDLLYLELNTVKTEDTAVYFCARGPHHSDRSGYYGGTFDIWGQGTMVTVSS
VL: DIQMTQSPSSVSASVGDRVIITCRASQGISSWLAWYQQKPGRAPRLLIYDASTLESGVPSRFSGRGSGTEFTLTINSLQPEDFATYYCQQGNMFPLTFGGGTKVEIK
B5: soluble ectodomain of the HCMV Pentamer (strain Towne) (complex)
chain 1: RYGAEAISEPLDKAFHLLLNTYGRPIRFLRENTTQCTYNSSLRNSTVVRENAISFNFFQSYNQYYVFHMPRCLFAGPLAEQFLNQVDLTETLERYQQRLNTYALVSKDLASYRSFSQQLKAQDSLGEQPTTVPPPIDLSIPHVWMPPQTTPHGWTESHTTSGLHRPHFNQTCILFDGHDLLFSTVTPCLHQGFYLIDELRYVKITLTEDFFVVTVSIDDDTPMLLIFGHLPRVLFKAPYQRDNFILRQTEKHELLVLVKKDQLNRHSYLKDPDFLDAALDFNYLDLSALLRNSFHRYAVDVLKSGRCQMLDRRTVEMAFAYALALFAAARQEEAGAQVSVPRALDRQAALLQIQEFMITCLSQTPPRTTLLLYPTAVDLAKRALWTPNQITDITSLVRLVYILSKQNQQHLIPQWALRQIADFALKLHKTHLASFLSAFARQELYLMGSLVHSMLVHTTERREIFIVETGLCSLAELSHFTQLLAHPHHEYLSDLYTPCSSSGRRDHSLERLTRLFPDATVPTTVPAALSILSTMQPSTLETFPDLFCLPLGESFSALTVSEHVSYVVTNQYLIKGISYPVSTTVVGQSLIITQTDSQTKCELTRNMHTTHSITAALNISLENCAFCQSALLEYDDTQGVINIMYMHDSDDVLFALDPYNEVVVSSPRTHYLMLLKNGTVLEVTDVVVDATDSRL
chain 2: VAVSVAPTAAEKVPAECPELTRRCLLGEVFQGDKYESWLRPLVNVTRRDGPLSQLIRYRPVTPEAANSVLLDDAFLDTLALLYNNPDQLRALLTLLSSDTAPRWMTVMRGYSECGDGSPAVYTCVDDLCRGYDLTRLSYGRSIFTEHVLGFELVPPSLFNVVVAIRNEATRTNRAVRLPVSTAAAPEGITLFYGLYNAVKEFCLRHQLDPPLLRHLDKYYAGLPPELKQTRVNLPAHSRYGPQAVDAR
chain 3: RVPRVRAEECCEFINVNHPPERCYDFKMCNRFTVALRCPDGEVCYSPEKTAEIRGIVTTMTHSLTRQVVHNKLTSCNYNPLYLEADGRIRCGKVNDKAQYLLGAAGSVPYRWINLEYDKITRIVGLDQYLESVKKHKRLDVCRAKMGYMLQ
chain 4: SPWSTLTANQNPSPPWSKLTYSKPHDAATFYCPFLYPSPPRSPLQFSGFQQVSTGPECRNETLYLLYNREGQTLVERSSTWVKKVIWYLSGRNQTILQRMPQTASKPSDGNVQISVEDAKIFGAHMVPKQTKLLRFVVNDGTRYQMCVMKLESWAHVFRDYSVSFQVRLTFTEANNQTYTFCTHPNLIV
chain 5: QCQRETAEKNDYYRVPHYWDACSRALPDQTRYKYVEQLVDLTLNYHYDASHGLDNFDVLKRINVTEVSLLISDFRRQNRRGGTNKRTTFNAAGSLAPHARSLEFSVRLFAN
B6: untagged NRP2 (receptor)
chain: RGQPDPPCGGRLNSKDAGYITSPGYPQDYPSHQNCEWIVYAPEPNQKIVLNFNPHFEIEKHDCKYDFIEIRDGDSESADLLGKHCGNIAPPTIISSGSMLYIKFTSDYARQGAGFSLRYEIFKTGSEDCSKNFTSPNGTIESPGFPEKYPHNLDCTFTILAKPKMEIILQFLIFDLEHDPLQVGEGDCKYDWLDIWDGIPHVGPLIGKYCGTKTPSELRSSTGILSLTFHTDMAVAKDGFSARYYLVHQEPLENFQCNVPLGMESGRIANEQISASSTYSDGRWTPQQSRLHGDDNGWTPNLDSNKEYLQVDLRFLTMLTAIATQGAISRETQNGYYVKSYKLEVSTNGEDWMVYRHGKNHKVFQANNDATEVVLNKLHAPLLTRFVRIRPQTWHSGIALRLELFGCRVTDAPCSNMLGMLSGLIADSQISASSTQEYLWSPSAARLVSSRSGWFPRIPQAQPGEEWLQVDLGTPKTVKGVIIQGARGGDSITAVEARAFVRKFKVSYSLNGKDWEYIQDPRTQQPKLFEGNMHYDTPDIRRFDPIPAQYVRVYPERWSPAGIGMRLEVLGCDWTDSKPTVETLGPTVKSEETTTPYPTEEEATECGENCSFEDDKDLQLPSGFNCNFDFLEEPCGWMYDHAKWLRTTWASSSSPNDRTFPDDRNFLRLQSDSQREGQYARLISPPVHLPRSPVCMEFQYQATGGRGVALQVVREASQESKLLWVIREDQGGEWKHGRIILPSYDMEYQIVFEGVIGKGRSGEIAIDDIRISTDVPLENCMEPISAFAGENFKVDIPEIHEREGYEDEIDDEYEVDWSNSSSATSGSGAPSTDKEKSWLYTLDPILITIIAMSSLGVLLGATCAGLLLYCTCSYSGLSSRSCTTLENYNFELYDGLKHKVKMNHQKCCSEA

Assay [1] deals with B5. The experiment in a line: SPR. Background: SPR reads the build-up and loss of mass on a sensor chip optically.
For assay [2], the target named is B5. Nature of the assay: SPR.
In assay [3] the target is T1, monoFc-tagged NRP2 (human neuropilin 2 a1a2b1b2, residues 23 to 595) (human, UniProt O60462 23-595).
T1 chain: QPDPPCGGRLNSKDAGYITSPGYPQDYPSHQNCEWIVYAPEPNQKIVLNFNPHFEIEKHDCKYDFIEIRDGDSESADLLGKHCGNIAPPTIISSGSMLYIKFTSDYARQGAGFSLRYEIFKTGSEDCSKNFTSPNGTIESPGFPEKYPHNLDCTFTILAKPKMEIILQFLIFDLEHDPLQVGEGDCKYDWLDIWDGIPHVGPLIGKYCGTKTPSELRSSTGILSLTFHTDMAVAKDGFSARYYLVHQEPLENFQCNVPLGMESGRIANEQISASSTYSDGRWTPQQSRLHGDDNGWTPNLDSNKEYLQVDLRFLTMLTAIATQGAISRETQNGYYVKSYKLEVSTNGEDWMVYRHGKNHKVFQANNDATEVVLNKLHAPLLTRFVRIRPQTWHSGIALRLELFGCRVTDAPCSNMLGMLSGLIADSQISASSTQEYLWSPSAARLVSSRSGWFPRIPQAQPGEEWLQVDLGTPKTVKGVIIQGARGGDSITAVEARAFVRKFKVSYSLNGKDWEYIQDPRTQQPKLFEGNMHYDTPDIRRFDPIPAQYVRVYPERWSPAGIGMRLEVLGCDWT
Nature of the assay: BLI; 2 mM Ca2+. Background: Biolayer interferometry detects binding as a change in optical thickness at a sensor tip.

Assay [4] addresses T2, NRP2 a2b1b2 (human neuropilin 2 residues 145 to 595, monomeric IgG1 Fc tag) (human, UniProt O60462 145-595).
T2 chain: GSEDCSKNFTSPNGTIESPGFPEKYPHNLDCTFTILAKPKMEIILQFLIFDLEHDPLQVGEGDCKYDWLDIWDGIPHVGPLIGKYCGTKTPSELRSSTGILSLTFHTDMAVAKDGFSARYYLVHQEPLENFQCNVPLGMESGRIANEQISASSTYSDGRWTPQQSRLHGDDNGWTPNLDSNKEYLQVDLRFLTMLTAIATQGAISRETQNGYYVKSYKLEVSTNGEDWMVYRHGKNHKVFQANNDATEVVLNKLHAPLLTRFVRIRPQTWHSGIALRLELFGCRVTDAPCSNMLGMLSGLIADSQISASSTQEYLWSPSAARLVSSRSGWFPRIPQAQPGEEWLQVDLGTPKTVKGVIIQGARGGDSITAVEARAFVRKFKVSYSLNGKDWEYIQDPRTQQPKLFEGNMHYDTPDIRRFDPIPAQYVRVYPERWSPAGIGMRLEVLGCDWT
The experiment in a line: BLI; 2 mM Ca2+.

Assay [5] deals with 1-32–captured Pentamer (HCMV Pentamer bound by 1-32 IgG) (human cytomegalovirus (strain Towne) | …, UniProt P17176 24-718). The experiment in a line: BLI; Pentamer captured by 1-32 IgG.

The molecule B1 came in with a Kd in assay [1] of 3.11 nM.

B2 returned a dissociation constant Kd in assay [1] of 1.08 nM. Compared with the last molecule, the Kd is about 2.9-fold lower.

In the case of B3, binding in assay [1] was characterised by a dissociation constant (Kd) of 2.82 nM. The same molecule returned an off-rate (koff) in assay [2] of 0.000264 s⁻¹.

Take B4: binding in assay [1] was characterised by a dissociation constant (Kd) of 0.0493 nM.

Consider B5, for which the koff came to 0.000271 s⁻¹ in assay [3] and 0.00104 s⁻¹ in assay [4].

On to B6, for which the koff in assay [5] amounted to 0.00177 s⁻¹.
